Read-outs that look alike come from different tables or passages of the source.
B1: IL-13Rα1 soluble extracellular domain (receptor, UniProt P78552 22-343, looked up)
chain: GGGGAAPTETQPPVTNLSVSVENLCTVIWTWNPPEGASSNCSLWYFSHFGDKQDKKIAPETRRSIEVPLNERICLQVGSQCSTNESEKPSILVEKCISPPEGDPESAVTELQCIWHNLSYMKCSWLPGRNTSPDTNYTLYYWHRSLEKIHQCENIFREGQYFGCSFDLTKVKDSSFEQHSVQIMVKDNAGKIKPSFNIVPLTSRVKPDPPHIKNLSFHNDDLYVQWENPQNFISRCLFYEVEVNNSQTETHNVFYVQEAKCENPEFERNVENTSCFMVPGVLPDTLNTVRIRVKTNKLCYEDDKLWSNWSQEMSIGKKRNST
modifications: fully glycosylated
B2: IL-13Rα2 ectodomain (amino acids 29–331) (receptor, human, UniProt Q14627 29-331, looked up)
chain: EIKVNPPQDFEIVDPGYLGYLYLQWQPPLSLDHFKECTVEYELKYRNIGSETWKTIITKNLHYKDGFDLNKGIEAKIHTLLPWQCTNGSEVQSSWAETTYWISPQGIPETKVQDMDCVYYNWQYLLCSWKPGIGVLLDTNYNLFYWYEGLDHALQCVDYIKADGQNIGCRFPYLEASDYKDFYICVNGSSENKPIRSSYFTFQLQNIVKPLPPVYLTFTRESSCEIKLKWSIPLGPIPARCFDYEIEIREDDTTLVTATVENETYTLKTTNETRQLCFVVRSKVNIYCSDDGIWSEWSDKQCW
modifications: fully glycosylated

Legend:
[1] = molecular target: C-terminally biotinylated IL-13Rα1 (UniProt P78552); test: SPR
[2] = molecular target: C-terminally biotinylated IL-13Rα2 (human) (UniProt Q14627); test: SPR
[3] = molecular target: T1, Human IL-13 (amino acids 21–132), wild type, fully glycosylated (human, UniProt P35225 35-146, fully glycosylated); test: ITC
[4] = molecular target: T1, Human IL-13 (amino acids 21–132), wild …; test: ITC; remark: listed apart in the source
IL-13 F107A (human) = test: ITC
IL-13 K104A (human) = test: ITC

Molecule	koff [1]	kon [1]	koff [2]	kon [2]	other results
IL-13 R11A (ligand)	0.00487 s⁻¹	1.87e+06 M⁻¹ s⁻¹			
IL-13 V18A (ligand)	0.00443 s⁻¹	3.26e+06 M⁻¹ s⁻¹			
IL-13 E15A (ligand)	0.00445 s⁻¹	2.82e+06 M⁻¹ s⁻¹			
IL-13 K104A (ligand)			0.00271 s⁻¹	9.64e+06 M⁻¹ s⁻¹	
IL-13 D87A (ligand)	0.00751 s⁻¹	2.74e+06 M⁻¹ s⁻¹			
IL-13 L101A (ligand)	0.00463 s⁻¹	3.53e+06 M⁻¹ s⁻¹			
IL-13 I14A (ligand)			0.000152 s⁻¹	1.79e+07 M⁻¹ s⁻¹	
IL-13 T88A (ligand)	0.00488 s⁻¹				
IL-13 F107A (ligand)			0.000945 s⁻¹	1.15e+07 M⁻¹ s⁻¹	
IL-13 K105A (ligand)	0.00771 s⁻¹	1.31e+06 M⁻¹ s⁻¹	1.06e-05 s⁻¹	9.16e+06 M⁻¹ s⁻¹	
B1					dH [3]: -11.4 kcal/mol; stoichiometry N [3]: 0.937
B2					dH [4]: -20.1 kcal/mol; stoichiometry N [4]: 0.943; dH (IL-13 F107A (human)): -17.1 kcal/mol; stoichiometry N (IL-13 F107A (human)): 0.949; dH (IL-13 K104A (human)): -20.4 kcal/mol; stoichiometry N (IL-13 K104A (human)): 0.884; dH [3]: -20 kcal/mol; stoichiometry N [3]: 0.98

— PMC2850121 (Structure (London, England : 1993), 2010)
